Molecular target: CPm (minor coat protein) (Tomato chlorosis virus, UniProt A0A088FMK1 1-669)
Assay: EMSA; […], room temperature 30 min; […]; binding buffer, […]
Details: protein: recombinant; tags: His (pET28a); label: 5'-biotin; single strand

B1: siRGFP-guide (single-stranded GFP RNA probe) (ssRNA)
RNA: UCAACAGGAUCGAGCUUAAGG
- binding result: no binding
